2 molecules from paper PMC12691273 can be followed below.

The target in this assay is T1, 14-3-3 protein, Q5ZKC9.
T1 chain: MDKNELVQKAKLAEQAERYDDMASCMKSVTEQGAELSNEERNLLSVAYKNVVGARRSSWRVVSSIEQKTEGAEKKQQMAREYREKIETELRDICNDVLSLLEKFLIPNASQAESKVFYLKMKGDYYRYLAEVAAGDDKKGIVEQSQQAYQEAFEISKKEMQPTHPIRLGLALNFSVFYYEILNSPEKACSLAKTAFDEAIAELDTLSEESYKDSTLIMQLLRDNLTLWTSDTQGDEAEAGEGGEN
Briefly: co-immunoprecipitation (IP FOXO1, WB 14-3-3), band quantification. Conditions: chain shown with the change; chicken granulosa cells, with 740-Y-P; n = 3; parent: est. 3.7; read off a plot.

B1: chicken forkhead box O1 (FOXO1) wild-type, A0A8V0XGP1 S311A (protein)
chain: MAEAPQLVDIDPDFEPLPRPRSCTWPLPRPEFNPPSSATSSPAPSCGGQPDGAAAAGAAVAVAASGALSADFISNLCLVEESEDFALPPAAAAPPESAACRCGDFSAPEAGCRLHPPGPPPVPPVPPAVAALSPGPVAGQPRKSSSSRRNAWGNLSYADLITKAIESSPEKRLTLSQIYEWMVKSVPYFKDKGDSNSSAGWKNSIRHNLSLHSKFIRVQNEGTGKSSWWMLNPEGGKSGKSPRRRAASMDNNSKFAKSRGRAAKKKASLQSGQEGNGDSPGSQFSKWPASPSSHSNDDFDNWSTFRPRTSANASTISGRLSPILPEQDDLGDGDVHSMVYPSSATKMTSTLPSLSEMSSSENMENLLDNLNLLSPNTSMTVSTQSSSAALMQQTPGYSFASSTTSICSPNPDYRKFTYAQASMNSLPQIPMQTLQDSKSSYGSMSQFNCPAGLLKELLTSDSPPHNDILASVDTGVSQAGGRALGQGVLMVTNSVMPTYGNQPPHNKMMNPNARPHQGHNQPTPAVNGRALSHTVNPMSHTSCLNRLSTVKTSLQVPMSHQMQMNAMNPYAPVNSCNGYGRVGIVSLHQEKLPSDLDDMLIERLDCDMESIIRNDLMDGETLDFNFDSVLPNQSFQHSVKTTTHSWVSG
On to B1, for which the response is 3.7.

B2: chicken forkhead box O1 (FOXO1) wild-type, A0A8V0XGP1 S248A (protein)
chain: MAEAPQLVDIDPDFEPLPRPRSCTWPLPRPEFNPPSSATSSPAPSCGGQPDGAAAAGAAVAVAASGALSADFISNLCLVEESEDFALPPAAAAPPESAACRCGDFSAPEAGCRLHPPGPPPVPPVPPAVAALSPGPVAGQPRKSSSSRRNAWGNLSYADLITKAIESSPEKRLTLSQIYEWMVKSVPYFKDKGDSNSSAGWKNSIRHNLSLHSKFIRVQNEGTGKSSWWMLNPEGGKSGKSPRRRAAAMDNNSKFAKSRGRAAKKKASLQSGQEGNGDSPGSQFSKWPASPSSHSNDDFDNWSTFRPRTSSNASTISGRLSPILPEQDDLGDGDVHSMVYPSSATKMTSTLPSLSEMSSSENMENLLDNLNLLSPNTSMTVSTQSSSAALMQQTPGYSFASSTTSICSPNPDYRKFTYAQASMNSLPQIPMQTLQDSKSSYGSMSQFNCPAGLLKELLTSDSPPHNDILASVDTGVSQAGGRALGQGVLMVTNSVMPTYGNQPPHNKMMNPNARPHQGHNQPTPAVNGRALSHTVNPMSHTSCLNRLSTVKTSLQVPMSHQMQMNAMNPYAPVNSCNGYGRVGIVSLHQEKLPSDLDDMLIERLDCDMESIIRNDLMDGETLDFNFDSVLPNQSFQHSVKTTTHSWVSG
Regarding B2, the response turned out to be 2.7.
